Target: T1, OB-RY1141F (Homo sapiens, UniProt P48357, Y1141F)
T1 construct: cells transfected with the full-length OB-R constructs; expressed in transfected cells; host or cells: COS-7
T1 sequence (P48357 22-1165 Y1141F): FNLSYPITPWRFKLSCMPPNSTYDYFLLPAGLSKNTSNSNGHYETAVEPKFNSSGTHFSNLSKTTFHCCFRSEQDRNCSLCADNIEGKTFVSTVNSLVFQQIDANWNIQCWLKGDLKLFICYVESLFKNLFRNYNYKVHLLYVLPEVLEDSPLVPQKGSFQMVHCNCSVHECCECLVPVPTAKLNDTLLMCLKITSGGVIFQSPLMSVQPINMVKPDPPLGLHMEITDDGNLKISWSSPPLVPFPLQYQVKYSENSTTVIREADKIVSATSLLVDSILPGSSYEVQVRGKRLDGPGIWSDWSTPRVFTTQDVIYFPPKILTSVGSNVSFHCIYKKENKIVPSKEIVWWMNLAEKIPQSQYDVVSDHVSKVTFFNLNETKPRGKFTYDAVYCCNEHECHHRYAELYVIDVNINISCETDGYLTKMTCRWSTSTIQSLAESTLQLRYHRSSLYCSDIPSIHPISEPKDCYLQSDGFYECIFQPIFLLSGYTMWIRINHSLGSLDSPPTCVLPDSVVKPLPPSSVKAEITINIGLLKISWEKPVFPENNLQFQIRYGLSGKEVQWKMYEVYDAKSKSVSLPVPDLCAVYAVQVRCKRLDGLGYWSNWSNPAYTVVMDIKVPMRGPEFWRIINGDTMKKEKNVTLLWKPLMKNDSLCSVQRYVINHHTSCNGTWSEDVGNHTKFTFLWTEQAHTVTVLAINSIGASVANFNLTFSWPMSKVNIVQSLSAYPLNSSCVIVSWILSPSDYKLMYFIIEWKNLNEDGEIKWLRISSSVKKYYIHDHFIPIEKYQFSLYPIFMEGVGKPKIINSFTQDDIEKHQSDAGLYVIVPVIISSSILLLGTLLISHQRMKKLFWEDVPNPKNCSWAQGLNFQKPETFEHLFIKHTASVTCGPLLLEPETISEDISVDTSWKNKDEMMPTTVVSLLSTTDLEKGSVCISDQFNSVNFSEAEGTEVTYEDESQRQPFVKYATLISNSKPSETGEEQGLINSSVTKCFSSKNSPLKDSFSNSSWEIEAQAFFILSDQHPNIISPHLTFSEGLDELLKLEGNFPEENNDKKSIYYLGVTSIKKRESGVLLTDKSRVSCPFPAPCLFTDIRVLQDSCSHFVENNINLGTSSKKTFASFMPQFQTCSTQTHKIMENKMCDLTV
Test: Luciferase reporter gene assay (3(G3)-Cy6-LUC), leptin stimulation of COS cells expressing mutant OB-RY1141F
Format: cell-based
Details: mutant construct OB-RY1141F, 100 ng/ml leptin for 24 hours
Experimental: The cytoplasmic domain and full-length human OB-R was cloned by PCR using human fetal liver and adipocyte cDNA (Clontech) and cloned into the expression vectors pCMX and pMT21. Chimeric receptors were constructed by fusing the extracellular domain and transmembrane domain of TrkC (amino acids 1 to 458) to the cytoplasmic domain of OB-R (amino acids 865-1165). A triple myc epitope tag was added at the C-terminus of all OB-R constructs (18). Truncation and point mutant constructs were generated by PCR and the sequences of all constructs were verified. Expression constructs were transfected into COS-7 cells using lipofectamine (GIBCO-BRL); 36-48 hours after transfection, cells were starved for either 2 hour,s for chimeric receptors or overnight for full-length receptors prior to stimulation.
Expression constructs (1 μg) for OB-R, OB-RY1141F, OB-RY986F, OB-RY1078, 1079F, and OB-RY986, 1141F were co-transfected with 1 μg of 3(G3)-Cy6-LUC and 0.1 μg of pCMX.LacZ into COS-7 cells (6-well dishes) using lipofectamine. The day after transfection, media was changed to serum-free OptiMEM (GIBCO-BRL) and then treated with 100 ng/ml murine leptin (PeproTech) or human leptin (R&D Systems) for 24 hours. […] Luciferase and β-galactosidase activities were measured in cell lysates (30) and luciferase activity was normalized to β-galactosidase activity to control for transfection differences. […]

- induction of luciferase activity: no induction
Substance: leptin: the product of the obese gene, secreted by adipocytes; ligand of OB-R

— patent US20020012949A1, “Assay systems for leptin-enhancing agents” (priority 1997, published 2002)
